Non-standard residues stand in square brackets, D forms with d. Primed or numbered codes have the meaning given here. No end group written: not given here. *: point of attachment. PEG8′ = polyethylene glycol linker with an average of 8 ethylene glycol units; fluorPhe = fluorinated phenylalanine; Palmitoyl = CCCCCCCCCCCCCCCC(=O)*; Tic = O=C(O)[C@@H]1Cc2ccccc2CN1; Aad = N[C@@H](CCCC(=O)O)C(=O)O; Nle = CCCC[C@H](N)C(=O)O; Nva = CCC[C@H](N)C(=O)O
Each binder was assayed against T1, human Chemokine-like receptor 1, CMKLR1 (ProLink (PK) tagged GPCR in PathHunter β-Arrestin cells) (human) (UniProt Q99788).
T1 sequence: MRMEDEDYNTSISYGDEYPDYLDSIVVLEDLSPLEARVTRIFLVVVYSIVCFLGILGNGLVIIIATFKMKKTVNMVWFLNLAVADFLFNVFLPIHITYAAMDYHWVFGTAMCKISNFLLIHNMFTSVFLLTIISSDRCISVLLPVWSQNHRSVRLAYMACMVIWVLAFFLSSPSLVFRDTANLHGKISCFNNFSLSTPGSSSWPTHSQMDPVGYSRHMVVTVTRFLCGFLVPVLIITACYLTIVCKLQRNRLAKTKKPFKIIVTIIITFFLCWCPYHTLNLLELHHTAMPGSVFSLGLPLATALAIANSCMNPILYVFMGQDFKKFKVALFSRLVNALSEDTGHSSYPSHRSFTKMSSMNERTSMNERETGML

Binder	EC50, PathHunter β-Arrestin recruitment assay, agonist format [nM]
{Palmitoyl-PEG8′}-AGFF[Nle]PSQFA[Tic][dA] [OK-115]	12.4
{Palmitoyl-PEG8′}-GGFF[Nle]PSQFA[Tic][dS] [OK-116]	63.9
{Palmitoyl-PEG8′}-[dA]G[dY]F[Nle]P[dS][Aad]F[dA][Tic][dA] [OK-111]	15
{Palmitoyl-PEG8′}-AAFY[Nle]PTQFA[Tic][dA] [OK-106]	32.5
{Palmitoyl-PEG8′}-AG[dY]F[Nle]P[dS]QFA[Tic][dS] [OK-114]	< 0.5
{Palmitoyl-PEG8′}-GG[dY]FLP[dS]QF[dA][Tic]S [OK-101]	2.6
{Palmitoyl-PEG8′}-AGYF[Nle]PTNFA[Tic][dA] [OK-105]	203
{Palmitoyl-PEG8′}-AAYF[Nle]PSQY[dA]F[dA] [OK-107]	1710
{Palmitoyl-PEG8′}-AAYF[Nle]PSQFA[Tic][dA] [OK-103]	43
{Palmitoyl-PEG8′}-[Nva]G[dY]F[Nle]P[dS]QF[dA][Tic][dA] [OK-113]	< 0.5
{Palmitoyl-PEG8′}-AAFY[Nle]PSQYA[Tic][dA] [OK-104]	2.6
{Palmitoyl-PEG8′}-[dA]G[dY]F[Nle]P[dS]QF[dA][Tic][dA] [OK-102]	2.3
{Palmitoyl-PEG8′}-[dA]G[dY]F[Nle]P[dS]Q[fluorPhe][dA][Tic][dA] (also: fluorPhe9: fluorine position not given here) [OK-112]	1.4
{Palmitoyl-PEG8′}-AG[dY]F[Nle]P[dS][Aad]FA[Tic][dA] [OK-109]	< 0.5
